Source: publication doi:10.1101/270363
pKd: −log10 of the molar value.

Target: full length nPIST (1st - 463rd aa) (mouse) (UniProt Q8BH60)
Experiment: SPR

pKd: 7.88
koff: 0.00123 s⁻¹
kon: 92500 M⁻¹ s⁻¹
Substance: F-actin (filamentous actin) (from UniProt P68135 1-377) (natural protein)
